Source: paper PMC12172627
Like-named read-outs stand apart in the source and are kept apart here.

Key:
Test in all cases: EMSA
[1] = target: T1, E2F1 full-length (human, UniProt Q01094 1-437)
[2] = target: T1, E2F1 full-length; remark: listed apart in the source
[3] = target: T1, E2F1 full-length; remark: listed apart in the source
[4] = target: E2F1 DBD R166H (UniProt Q01094 110-194, R166H)
[5] = target: E2F1 DBD L132E (UniProt Q01094 110-194, L132E)
Sequence of E2F1 DBD L132E (Q01094 110-194 L132E): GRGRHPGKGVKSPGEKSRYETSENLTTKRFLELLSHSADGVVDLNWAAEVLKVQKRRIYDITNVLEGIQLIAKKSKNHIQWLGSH

T1 sequence (Q01094 whole entry): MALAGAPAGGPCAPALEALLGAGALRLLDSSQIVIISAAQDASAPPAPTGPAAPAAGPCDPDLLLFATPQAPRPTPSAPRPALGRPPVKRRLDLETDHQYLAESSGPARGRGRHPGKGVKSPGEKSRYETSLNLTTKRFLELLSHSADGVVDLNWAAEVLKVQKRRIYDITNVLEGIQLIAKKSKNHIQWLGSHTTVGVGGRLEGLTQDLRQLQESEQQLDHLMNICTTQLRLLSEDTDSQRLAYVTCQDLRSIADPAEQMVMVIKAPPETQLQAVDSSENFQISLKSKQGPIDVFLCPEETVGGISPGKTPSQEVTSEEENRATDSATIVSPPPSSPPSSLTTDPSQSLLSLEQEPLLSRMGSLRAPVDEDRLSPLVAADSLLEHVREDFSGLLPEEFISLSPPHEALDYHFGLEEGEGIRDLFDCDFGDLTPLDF
Sequence of E2F1 DBD R166H (Q01094 110-194 R166H): as the sequence (Q01094 110-194 L132E) above, with E23L, R57H counted along it

## AUCGAUUUCCAGCUCGAUCGAUCGAGCUGGAAAUCGAU (structured_RNA) [BS1 double stranded (stem)]
[1]
  binding result: binds

## AUCGAUUUCCCUCUCGAUCGAUCGAGAGGGAAAUCGAU (structured_RNA) [BS4 double stranded (stem)]
[1]
  binding result: binds

## AUCGAUUCCCCGCUCGAUCGAUCGAGCGGGGAAUCGAU (structured_RNA) [BS3 double stranded (stem)]
[2]
  binding result: binds

## AUCGAUUUCCCGCUCGAUCGAUCGAGCGGGAAAUCGAU (structured_RNA) [BS2 double stranded (stem)]
[1]
  binding result: binds

B1: 42-mer dsDNA (2XE2F1_DNA_BS) (dsDNA)
DNA 1: GCCGTTTTCGCGCTTAAATTTGAGAAAGGGCGCGAAACTGGA
DNA 2: TCCAGTTTCGCGCCCTTTCTCAAATTTAAGCGCGAAAACGGC
[3]
  binding result: binds
[4]
  binding result: binds
[5]
  binding result: binds
